Reference: patent publication US10450570B2, “Compositions and methods for controlling vasculature” (YALE UNIVERSITY, priority 2016, dated 2019)

Columns and labels:
[1] = test system: tail skin lymphatic formation; experiment: Tail skin lymphatic formation in neonatal mice after adenovirus injection; assay type: in vivo; settings: adenovirus injected into mouse pups at P0 and P1, examined at P6
Source text: Adenovirus encoding GFP, empty CMV vector, sFGFR1-IIIC (Murakami, M. et al., 118, 3355-3366, (2008)), HK2 (Wu, R. et al. Circulation research 108, 60-69, (2011)), or Myc (from Vector Biolabs) for in vitro experiments was amplified in 293A cells according to the user manual of ViraPower™ Adenoviral Expression System (Life Technologies). Virus was tittered using Adeno-X™ Rapid Titer Kit (Clontech Laboratories). For in vivo experiments, LacZ- or sFGFR1-IIIC was amplified and purified at University of North Carolina virus vector core. Neonatal pups were injected i.p. with 5×10^8 FFU of LacZ or sFGFR1-IIIC virus at P0 and P1. Tail skin was harvested at P6 using a method published previously (Xu, Y. et al., J Cell Biol 188, 115-130, (2010)).

[2] = test system: FGF2-induced ERK activation in HDLECs; experiment: FGF2-induced ERK activation, Western blot of phosphorylated and total ERK; assay type: cell-based, human; settings: HDLECs infected with adenovirus, serum-starved, stimulated with FGF2
Protocol: Human dermal lymphatic endothelial cells (HDLECs, HMVEC-dLyNeo-Der Lym Endo EGM-2MV) and Pooled human umbilical vein endothelial cells (HUVECs) were purchased from Lonza and cultured in EBM2 basal medium with EGM-2 MV BulletKit. Both cell types were tested negative for mycoplasma in Lonza. Culture medium was changed every the other day. Tissue culture plates were coated with 0.1% gelatin (Sigma) for 30 min at 37° C. and washed with Dulbecco's Phosphate-Buffered Saline (Life Technologies) before cell plating. For siRNA-mediated gene knockdown, FGFR1 siRNA (ON-TARGETplus human FGFR1 siRNA, Dharmacon; Hs_FGFR1_6, Qiagen), FGFR3 siRNA (Hs_FGFR3_6, Qiagen), HK2 siRNA (s6562 human HK2 siRNA, Life Technologies), c-Myc siRNA (ON-TARGETplus human Myc siRNA, Dharmacon), AllStar negative control siRNA (Qiagen), and ON-TARGETplus Non-targeting pool (Dharmacon) were transfected by lipofectamine RNAimax reagent (Life Technologies). Human FGF2 was provided by Kaken Pharmaceutical Co, Ltd (Japan) and ordered from Peprotech. Human VEGFC, VEGFD, IGF1, IGF2 and PDGFBB were purchased from Peprotech. To assay the effect of FGFR1 knockdown on glycolytic enzyme expression, HDLECs, transfected with control or FGFR1 siRNA 3 days in advance, were replated and collected for protein analysis 24 hr later when the cell confluency reached ˜80%. […] ImageJ was used for densitometry quantification of western blot bands. […]

[3] = test system: HK2 and other glycolytic enzymes in HDLECs; experiment: Western blot of glycolytic enzyme expression in HDLECs; assay type: cell-based, human; settings: protein
Protocol: Human dermal lymphatic endothelial cells (HDLECs, HMVEC-dLyNeo-Der Lym Endo EGM-2MV) and Pooled human umbilical vein endothelial cells (HUVECs) were purchased from Lonza and cultured in EBM2 basal medium with EGM-2 MV BulletKit. Both cell types were tested negative for mycoplasma in Lonza. Culture medium was changed every the other day. Tissue culture plates were coated with 0.1% gelatin (Sigma) for 30 min at 37° C. and washed with Dulbecco's Phosphate-Buffered Saline (Life Technologies) before cell plating. For siRNA-mediated gene knockdown, FGFR1 siRNA (ON-TARGETplus human FGFR1 siRNA, Dharmacon; Hs_FGFR1_6, Qiagen), FGFR3 siRNA (Hs_FGFR3_6, Qiagen), HK2 siRNA (s6562 human HK2 siRNA, Life Technologies), c-Myc siRNA (ON-TARGETplus human Myc siRNA, Dharmacon), AllStar negative control siRNA (Qiagen), and ON-TARGETplus Non-targeting pool (Dharmacon) were transfected by lipofectamine RNAimax reagent (Life Technologies). Human FGF2 was provided by Kaken Pharmaceutical Co, Ltd (Japan) and ordered from Peprotech. Human VEGFC, VEGFD, IGF1, IGF2 and PDGFBB were purchased from Peprotech. To assay the effect of FGFR1 knockdown on glycolytic enzyme expression, HDLECs, transfected with control or FGFR1 siRNA 3 days in advance, were replated and collected for protein analysis 24 hr later when the cell confluency reached ˜80%. […] ImageJ was used for densitometry quantification of western blot bands.

[4] = test system: HDLECs; experiment: Glycolytic flux measurement (5-3H-glucose); assay type: cell-based, human
Protocol: Glycolysis was measured as previously described. Briefly, subconfluent HDLECs cultured in 12-well plates were incubated with 1 ml/well EBM2 medium (containing appropriate amount of serum and supplement) with 80 μCi/mmol 5-^3H-glucose (Perkin Elmer) for 2-3 hr. Then 0.8 ml/well medium was transferred into glass vials with hanging wells and filter papers soaked with H2O. After incubation in a cell culture incubator for at least 2 days to reach saturation, filter papers were taken out and the amount of evaporated ^3H2O was measured in a scintillation counter. Glucose oxidation, glutamine oxidation and fatty acid oxidation were measured essentially as reported. For measurement of glucose uptake, HDLECs were incubated with 2-[1-^14C]-deoxy-D-glucose (2.5 μCi/ml, Perkin Elmer) for 10 min. before PBS washing (at least 3 times to get rid of all radioactive medium) and then lysis with 500 μL 0.1 N NaOH. 400 μl NaOH cell lysate for each sample was transferred to scintillation vials containing scintillation liquid and measured.

Molecule | tail skin lymphatic formation [1] | FGF2-induced ERK activation [2] | glycolytic enzyme (HK2) expression [3] | glycolytic flux [4]
sFGFR1-IIIC: soluble pan-FGF receptor trap, delivered by adenovirus (protein, UniProt P11362 22-376, looked up, extracellular domain IIIc isoform, adenovirus-delivered) extracellular domain: RPSPTLPEQAQPWGAPVEVESFLVHPGDLLQLRCRLRDDVQSINWLRDGVQLAESNRTRITGEEVEVQDSVPADSGLYACVTSSPSGSDTTYFSVNVSDALPSSEDDDDDDDSSSEEKETDNTKPNRMPVAPYWTSPEKMEKKLHAVPAAKTVKFKCPSSGTPNPTLRWLKNGKEFKPDHRIGGYKVRYATWSIIMDSVVPSDKGNYTCIVENEYGSINHTYQLDVVERSPHRPILQAGLPANKTVALGSNVEFMCKVYSDPQPHIQWLKHIEVNGSKIGPDNLPYVQILKTAGVNTTDKEMEVLHLRNVSFEDAGEYTCLAGNSIGLSHHSAWLTVLEALEERPAVMTSPLYLE | significant inhibition of tail skin lymphatic formation | inhibited FGF2-induced ERK activation to the same extent as DN-FGFR1 |  | 
VEGFC: Human VEGFC growth factor purchased from Peprotech (protein, UniProt P49767 112-227, looked up) Vascular endothelial growth …: AHYNTEILKSIDNEWRKTQCMPREVCIDVGKEFGVATNTFFKPPCVSVYRCGGCCNSEGLQCMNTSTSYLSKTLFEITVPLSQGPKPVTISFANHTSCRCMSKLDVYRQVHSIIRR |  |  | increased HK2 expression without affecting other enzymes | increased glycolytic flux, albeit to a lesser extent than FGF2
VEGFD: Human VEGFD growth factor purchased from Peprotech (protein, UniProt O43915 89-205, looked up) Vascular endothelial growth …: FAATFYDIETLKVIDEEWQRTQCSPRETCVEVASELGKSTNTFFKPPCVNVFRCGGCCNEESLICMNTSTSYISKQLFEISVPLTSVPELVPVKVANHTGCKCLPTAPRHPYSIIRR |  |  |  | no effect
PDGFBB: platelet-derived growth factor-BB, purchased from Peprotech (protein, UniProt P01127 82-190, looked up) Platelet-derived growth …: SLGSLTIAEPAMIAECKTRTEVFEISRRLIDRTNANFLVWPPCVEVQRCSGCCNNRNVQCRPTQVQLRPVQVRKIEIVRKKPIFKKATVTLEDHLACKCETVAAARPVT |  |  |  | reduced flux
